In test [1] the target is T1, BCL11A extended zinc finger domain (exZnF23) (Homo sapiens, UniProt Q9H165).
T1 construct: Monomeric by SEC-MALS; also called exZnF23A; BCL11A exZnF23; source: E. coli, purified
In words: pull-down; wt2D9 and BCL11A (Figure S1b); details in the Supporting Information.

For test [2], the target named is T1, BCL11A extended zinc finger domain …. In words: pull-down; read by SDS-PAGE (Figure 1C); the legend names only an SDS-PAGE analysis; who was held is not told; methods in the Supporting Information. As to conditions: both partners purified.
Test [3] addresses T2, endogenous, full-length BCL11A (Homo sapiens (HUDEP-2 cells), UniProt Q9H165).
T2 construct: BCL11A, transcription factor and repressor of fetal globin genes, endogenous in HUDEP-2 cells; also called endogenous BCL11A; source: endogenous, HUDEP-2 lysate; endogenous, in HUDEP-2 cells
In words: pull-down; purified 2D9 or ZF5.3-2D9 added into the lysate of HUDEP-2 cells; endogenous BCL11A detected (the legend calls it immunoprecipitation). As to conditions: one partner purified.

Data on 3 molecules can be found in paper PMC9801508, “A Cell-Permeant Nanobody-Based Degrader That Induces Fetal Hemoglobin” (ACS Central Science, 2022).

T1 sequence (Q9H165 whole entry, looked up, the tested form may be a part): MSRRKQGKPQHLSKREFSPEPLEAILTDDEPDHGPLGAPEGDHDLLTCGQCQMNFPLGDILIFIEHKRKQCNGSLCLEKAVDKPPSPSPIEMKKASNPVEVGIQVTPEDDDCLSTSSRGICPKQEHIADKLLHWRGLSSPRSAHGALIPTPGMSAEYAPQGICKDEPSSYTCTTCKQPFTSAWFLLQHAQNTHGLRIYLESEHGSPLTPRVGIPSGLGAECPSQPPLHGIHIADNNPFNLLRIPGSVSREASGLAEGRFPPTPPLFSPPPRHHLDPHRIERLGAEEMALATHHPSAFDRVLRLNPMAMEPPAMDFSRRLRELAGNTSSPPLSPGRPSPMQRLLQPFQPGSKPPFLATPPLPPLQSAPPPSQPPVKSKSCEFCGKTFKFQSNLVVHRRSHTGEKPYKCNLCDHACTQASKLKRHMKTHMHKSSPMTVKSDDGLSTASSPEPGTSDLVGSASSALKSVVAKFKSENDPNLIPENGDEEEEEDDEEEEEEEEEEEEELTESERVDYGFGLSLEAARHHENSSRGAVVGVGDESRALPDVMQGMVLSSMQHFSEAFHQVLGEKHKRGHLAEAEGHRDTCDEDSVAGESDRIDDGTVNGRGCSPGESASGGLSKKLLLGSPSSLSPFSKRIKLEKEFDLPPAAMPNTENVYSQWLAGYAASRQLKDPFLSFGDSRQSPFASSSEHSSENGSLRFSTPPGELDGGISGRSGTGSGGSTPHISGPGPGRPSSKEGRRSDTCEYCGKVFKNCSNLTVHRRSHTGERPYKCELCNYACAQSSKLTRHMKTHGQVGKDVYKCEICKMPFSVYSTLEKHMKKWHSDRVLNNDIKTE
T2 sequence (Q9H165 whole entry): as the sequence (Q9H165 whole entry, looked up, the tested form may be a part) above

B1: Nanobody wt2D9 (initial hit) (VHH)
VHH: QVQLVESGGGLVQAGGSLRLSCAASGSIFVNNAMGWYRQAPGKERELVAAISASGGSTYYADSVKGRFTISRDNAKNTVYLQMNSLKPEDTAVYYCAADQDVYPYEYWGQGTQVTVSS
notes: initial synthetic nanobody hit of the yeast surface display screen; parent of 2D9 (2D9_V102G): as the chain of PDB 7UTG with V instead of G at 102; source: E. coli
Regarding B1, the binding result in test [1] is reported as “binds”.

B2: Nanobody 2D9_W108L (VHH)
VHH: QVQLVESGGGLVQAGGSLRLSCAASGSIFVNNAMGWYRQAPGKERELVAAISASGGSTYYADSVKGRFTISRDNAKNTVYLQMNSLKPEDTAVYYCAADQDVYPYEYLGQGTQVTVSS
notes: wt2D9 is as 2D9 of PDB 7UTG but with V at 102; By its name a single mutant of wt2D9, a sibling of 2D9_V102G; the reversion at 102 against PDB 7UTG is worked out from the names
Consider B2, for which the binding result in test [2] is reported as “binds”.

B3: Nanobody 2D9 (2D9_V102G) (VHH)
VHH: QVQLVESGGGLVQAGGSLRLSCAASGSIFVNNAMGWYRQAPGKERELVAAISASGGSTYYADSVKGRFTISRDNAKNTVYLQMNSLKPEDTAVYYCAADQDGYPYEYWGQGTQVTVSS
notes: also called Nb 2D9; source: purified
In the case of B3, the binding result in test [3] and in test [2] was “binds” each time.
